Assay results published in patent US20120039865A1, “IDENTIFICATION OF SORTILIN AS A NEURONAL RECEPTOR FOR THE FRONTOTEMPORAL DEMENTIA PROTEIN, PROGRANULIN” (Yale University, priority 2008, published 2012).

How the values were obtained:
SorLA = molecular target: T1, SorLA (Homo sapiens, UniProt Q92673); test: AP-PGRN binding to COS-7 cells expressing SorLA; details: 120 nM AP-PGRN
T1 construct: host or cells: COS-7
Excerpt: (§1) The human SorLA expression vector was provided by Anders Nykjaer, M.D., Ph.D., Aarhus University, Aarhus, Denmark (Jacobsen, L., et al., J. Biol. Chem. 276:22788-22796 (2001); Gliemann, J., et al., Biochem J. 381:203-212 (2004); GenBank Accession No. U60975), and the mouse SorCS1 expression vector in pCMV-Sport6 was obtained from Open Biosystems (GenBank Accession No. BC007486). […] A fragment of PGRN, termed PGRN-E in the literature, binds to sortilin with the same affinity as does full length PGRN (data not shown).

[1] = system: Rat (Sprague-Dawley) cortical neurons; test: AP-tagged ligand binding to cultured rat cortical neurons
Description: (§2) Rat (Sprague-Dawley) cortical neurons were isolated from E18 embryos and cultured in vitro for 3-21 days. Cultures were maintained in Neurobasal-A medium supplemented with B27, GLUTAMAX™ (2 mM), sodium pyruvate (1 mM), penicillin, and streptomycin. The binding of 10 nM AP-PGRN or 10 nM AP was detected as a dark reaction product produced by alkaline phosphatase (AP). Binding was measured as follows. The AP tagged ligand (in NBA) was incubated with the cortical neurons for 1 hr at 4° C., washed three times with HBH buffer, fixed with formaldehyde, and after washing again with HBH the neurons were incubated in a 67° C. oven to inactivate the endogenous AP. The tagged AP was then visualized using AP substrate 5-bromo-4-chloro-3-indolyl phosphate/nitro blue tetrazolium, which results in a dark precipitate. […] The addition of 100 nM Flag-PGRN displaced 10 nM AP-PGRN (FIG. 1C, middle panel).

[2] = molecular target: T2, sortilin-1 (Sort1; PGRN-R) (Mus musculus, UniProt Q6PHU5); test: AP-PGRN binding to COS-7 cells transfected with Sort1 cDNA
T2 construct: host or cells: COS-7 (ATCC No. CRL-1651)
T2 sequence (Q6PHU5 74-825): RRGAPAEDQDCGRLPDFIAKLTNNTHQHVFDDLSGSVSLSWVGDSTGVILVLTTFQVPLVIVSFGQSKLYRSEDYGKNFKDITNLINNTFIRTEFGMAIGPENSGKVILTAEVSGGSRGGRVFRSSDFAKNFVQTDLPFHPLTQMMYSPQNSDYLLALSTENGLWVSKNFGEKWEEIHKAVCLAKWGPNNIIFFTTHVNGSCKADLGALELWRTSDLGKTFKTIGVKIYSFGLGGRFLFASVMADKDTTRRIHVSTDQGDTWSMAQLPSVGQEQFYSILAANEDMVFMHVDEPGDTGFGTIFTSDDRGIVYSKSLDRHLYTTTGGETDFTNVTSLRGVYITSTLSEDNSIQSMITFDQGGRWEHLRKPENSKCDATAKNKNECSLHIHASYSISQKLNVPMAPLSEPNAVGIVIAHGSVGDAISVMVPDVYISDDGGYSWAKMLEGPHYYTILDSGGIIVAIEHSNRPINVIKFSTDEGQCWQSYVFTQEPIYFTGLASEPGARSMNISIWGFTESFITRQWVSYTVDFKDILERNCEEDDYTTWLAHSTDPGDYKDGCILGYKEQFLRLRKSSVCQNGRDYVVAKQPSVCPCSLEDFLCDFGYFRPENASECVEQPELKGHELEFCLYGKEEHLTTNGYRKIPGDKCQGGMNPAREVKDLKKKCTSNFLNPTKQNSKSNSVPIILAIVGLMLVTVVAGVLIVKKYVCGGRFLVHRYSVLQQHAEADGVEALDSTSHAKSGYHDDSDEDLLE
Description: as §2
To determine the molecular nature of the neuronal binding site of PGRN, expression cloning experiments utilizing AP-PGRN as a tagged ligand were conducted. COS-7 (ATCC No. CRL-1651) cells were transfected with expression vectors containing mouse cDNAs using FUGENE® 6 according to manufacturer's specifications (Roche). […]

[3] = system: mouse E17 cortical neurons; test: AP-PGRN binding to mouse cortical neurons (wild type, sortilin +/- and -/-)
Description: as §2
Binding was measured according to the methods described above by preincubating 100 nM PGRN with the cortical neurons for 1 hr and using a 5 nM AP-PGRN and 100 nM untagged PGRN mixture. […]
Gene-targeted sortilin −/− and +/− mice from Anders Nykjaer, M.D., Ph.D., Aarhus University, Aarhus, Denmark, were used to obtain cultures of cortical neurons. The binding of 2 nM AP-PGRN to cortical neurons isolated from sortilin −/− (FIG. 3B, left panel) and +/− (FIG. 3B, right panel) mice was evaluated. […]

[4] = system: COS-7 cells transfected with empty vector; test: AP-PGRN binding to COS-7 cells transfected with empty vector; details: 20 nM AP-PGRN
Description: To determine the molecular nature of the neuronal binding site of PGRN, expression cloning experiments utilizing AP-PGRN as a tagged ligand were conducted. COS-7 (ATCC No. CRL-1651) cells were transfected with expression vectors containing mouse cDNAs using FUGENE® 6 according to manufacturer's specifications (Roche). An arrayed adult mouse brain cDNA library (OriGene) of 225,000 clones was screened in pools of 5,000 at a time, as well as a library consisting of 352 individual preparations of cDNAs encoding transmembrane proteins (GFC-transfection array panel, OriGene). The COS-7 cells that specifically bound AP-PGRN (5 nM) contained a single cDNA clone, which encoded a single-pass, membrane-spanning surface glycoprotein that supports high affinity AP-PGRN binding (FIG. 2A, upper-right panel). […] As in mouse cortical neurons, binding of 5 nM AP-PGRN to Sort-1 (PGRN-R) in COS-7 cells was displaceable by excess untagged PGRN (100 nM) and was saturable, with an apparent Kd of 6 nM (FIG. 2A, lower-right panel, and 2B). The binding affinity of AP-PRGN measured for Sort1-transfected COS-7 cells and for neurons was indistinguishable, with a Kd of 5-10 nM (FIG. 2B, 6 nM, and data not shown). In both cases, unlabeled 100 nM PGRN displaced binding (FIG. 2A, lower-right panel, and FIG. 3A, right panel).

SorCS1 = molecular target: T3, SorCS1 (Mus musculus, UniProt Q9JLC4); test: AP-PGRN binding to COS-7 cells expressing SorCS1; details: 120 nM AP-PGRN
T3 construct: host or cells: COS-7
T3 sequence (Q9JLC4 34-1167): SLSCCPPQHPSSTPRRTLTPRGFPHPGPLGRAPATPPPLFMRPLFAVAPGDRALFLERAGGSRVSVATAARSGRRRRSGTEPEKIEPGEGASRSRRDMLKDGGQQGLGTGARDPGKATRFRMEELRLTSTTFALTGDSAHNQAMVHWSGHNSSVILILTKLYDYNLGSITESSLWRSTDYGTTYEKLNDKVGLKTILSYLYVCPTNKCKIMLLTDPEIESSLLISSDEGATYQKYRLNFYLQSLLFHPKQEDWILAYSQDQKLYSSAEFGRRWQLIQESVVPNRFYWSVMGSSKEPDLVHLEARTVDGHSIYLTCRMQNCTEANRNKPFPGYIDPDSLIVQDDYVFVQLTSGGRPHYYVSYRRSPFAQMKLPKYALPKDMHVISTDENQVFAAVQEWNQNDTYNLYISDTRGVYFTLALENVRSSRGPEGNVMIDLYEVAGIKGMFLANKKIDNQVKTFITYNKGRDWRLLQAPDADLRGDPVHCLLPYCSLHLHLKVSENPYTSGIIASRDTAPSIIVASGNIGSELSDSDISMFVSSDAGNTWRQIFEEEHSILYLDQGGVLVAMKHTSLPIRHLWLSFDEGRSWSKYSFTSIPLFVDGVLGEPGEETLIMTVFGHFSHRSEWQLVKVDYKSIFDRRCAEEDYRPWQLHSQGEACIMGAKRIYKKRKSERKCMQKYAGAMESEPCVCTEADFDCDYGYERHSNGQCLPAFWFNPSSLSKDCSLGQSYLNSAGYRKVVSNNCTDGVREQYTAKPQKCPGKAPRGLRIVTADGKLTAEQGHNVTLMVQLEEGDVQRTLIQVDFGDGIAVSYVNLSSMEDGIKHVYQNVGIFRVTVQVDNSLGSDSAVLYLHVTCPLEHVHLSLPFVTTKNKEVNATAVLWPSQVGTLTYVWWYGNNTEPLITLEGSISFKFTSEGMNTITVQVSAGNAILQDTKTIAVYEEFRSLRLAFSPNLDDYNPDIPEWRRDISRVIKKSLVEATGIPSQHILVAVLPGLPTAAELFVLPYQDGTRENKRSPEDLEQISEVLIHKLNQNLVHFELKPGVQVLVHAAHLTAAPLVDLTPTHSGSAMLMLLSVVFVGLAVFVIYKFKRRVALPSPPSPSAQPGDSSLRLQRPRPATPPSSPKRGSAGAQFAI
Excerpt: as §1

[5] = molecular target: T4, purified ectodomain of Sort1 (amino acids 60-725 of the human sequence) (Homo sapiens, UniProt Q99523); test: Physical complex of purified proteins isolated by affinity chromatography; type: binding; details: data not shown
T4 sequence (Q99523 60-725): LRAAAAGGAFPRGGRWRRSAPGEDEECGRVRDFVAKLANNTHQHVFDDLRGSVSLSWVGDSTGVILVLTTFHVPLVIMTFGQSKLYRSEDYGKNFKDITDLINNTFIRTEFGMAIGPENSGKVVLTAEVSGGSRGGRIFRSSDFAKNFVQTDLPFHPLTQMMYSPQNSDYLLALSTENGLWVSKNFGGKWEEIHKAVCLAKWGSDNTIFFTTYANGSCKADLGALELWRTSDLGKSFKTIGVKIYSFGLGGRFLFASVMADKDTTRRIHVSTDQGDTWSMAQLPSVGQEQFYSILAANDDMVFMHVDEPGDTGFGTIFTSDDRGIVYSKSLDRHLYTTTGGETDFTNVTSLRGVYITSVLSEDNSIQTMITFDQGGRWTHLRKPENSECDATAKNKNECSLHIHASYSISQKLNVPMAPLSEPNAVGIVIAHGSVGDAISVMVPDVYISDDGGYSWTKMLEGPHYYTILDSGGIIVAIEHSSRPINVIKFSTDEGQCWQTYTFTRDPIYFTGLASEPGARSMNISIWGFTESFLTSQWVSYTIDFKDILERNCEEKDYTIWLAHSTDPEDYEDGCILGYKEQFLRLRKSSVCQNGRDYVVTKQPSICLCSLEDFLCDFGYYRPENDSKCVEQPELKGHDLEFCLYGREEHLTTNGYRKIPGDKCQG

T1 sequence (Q92673 82-2214): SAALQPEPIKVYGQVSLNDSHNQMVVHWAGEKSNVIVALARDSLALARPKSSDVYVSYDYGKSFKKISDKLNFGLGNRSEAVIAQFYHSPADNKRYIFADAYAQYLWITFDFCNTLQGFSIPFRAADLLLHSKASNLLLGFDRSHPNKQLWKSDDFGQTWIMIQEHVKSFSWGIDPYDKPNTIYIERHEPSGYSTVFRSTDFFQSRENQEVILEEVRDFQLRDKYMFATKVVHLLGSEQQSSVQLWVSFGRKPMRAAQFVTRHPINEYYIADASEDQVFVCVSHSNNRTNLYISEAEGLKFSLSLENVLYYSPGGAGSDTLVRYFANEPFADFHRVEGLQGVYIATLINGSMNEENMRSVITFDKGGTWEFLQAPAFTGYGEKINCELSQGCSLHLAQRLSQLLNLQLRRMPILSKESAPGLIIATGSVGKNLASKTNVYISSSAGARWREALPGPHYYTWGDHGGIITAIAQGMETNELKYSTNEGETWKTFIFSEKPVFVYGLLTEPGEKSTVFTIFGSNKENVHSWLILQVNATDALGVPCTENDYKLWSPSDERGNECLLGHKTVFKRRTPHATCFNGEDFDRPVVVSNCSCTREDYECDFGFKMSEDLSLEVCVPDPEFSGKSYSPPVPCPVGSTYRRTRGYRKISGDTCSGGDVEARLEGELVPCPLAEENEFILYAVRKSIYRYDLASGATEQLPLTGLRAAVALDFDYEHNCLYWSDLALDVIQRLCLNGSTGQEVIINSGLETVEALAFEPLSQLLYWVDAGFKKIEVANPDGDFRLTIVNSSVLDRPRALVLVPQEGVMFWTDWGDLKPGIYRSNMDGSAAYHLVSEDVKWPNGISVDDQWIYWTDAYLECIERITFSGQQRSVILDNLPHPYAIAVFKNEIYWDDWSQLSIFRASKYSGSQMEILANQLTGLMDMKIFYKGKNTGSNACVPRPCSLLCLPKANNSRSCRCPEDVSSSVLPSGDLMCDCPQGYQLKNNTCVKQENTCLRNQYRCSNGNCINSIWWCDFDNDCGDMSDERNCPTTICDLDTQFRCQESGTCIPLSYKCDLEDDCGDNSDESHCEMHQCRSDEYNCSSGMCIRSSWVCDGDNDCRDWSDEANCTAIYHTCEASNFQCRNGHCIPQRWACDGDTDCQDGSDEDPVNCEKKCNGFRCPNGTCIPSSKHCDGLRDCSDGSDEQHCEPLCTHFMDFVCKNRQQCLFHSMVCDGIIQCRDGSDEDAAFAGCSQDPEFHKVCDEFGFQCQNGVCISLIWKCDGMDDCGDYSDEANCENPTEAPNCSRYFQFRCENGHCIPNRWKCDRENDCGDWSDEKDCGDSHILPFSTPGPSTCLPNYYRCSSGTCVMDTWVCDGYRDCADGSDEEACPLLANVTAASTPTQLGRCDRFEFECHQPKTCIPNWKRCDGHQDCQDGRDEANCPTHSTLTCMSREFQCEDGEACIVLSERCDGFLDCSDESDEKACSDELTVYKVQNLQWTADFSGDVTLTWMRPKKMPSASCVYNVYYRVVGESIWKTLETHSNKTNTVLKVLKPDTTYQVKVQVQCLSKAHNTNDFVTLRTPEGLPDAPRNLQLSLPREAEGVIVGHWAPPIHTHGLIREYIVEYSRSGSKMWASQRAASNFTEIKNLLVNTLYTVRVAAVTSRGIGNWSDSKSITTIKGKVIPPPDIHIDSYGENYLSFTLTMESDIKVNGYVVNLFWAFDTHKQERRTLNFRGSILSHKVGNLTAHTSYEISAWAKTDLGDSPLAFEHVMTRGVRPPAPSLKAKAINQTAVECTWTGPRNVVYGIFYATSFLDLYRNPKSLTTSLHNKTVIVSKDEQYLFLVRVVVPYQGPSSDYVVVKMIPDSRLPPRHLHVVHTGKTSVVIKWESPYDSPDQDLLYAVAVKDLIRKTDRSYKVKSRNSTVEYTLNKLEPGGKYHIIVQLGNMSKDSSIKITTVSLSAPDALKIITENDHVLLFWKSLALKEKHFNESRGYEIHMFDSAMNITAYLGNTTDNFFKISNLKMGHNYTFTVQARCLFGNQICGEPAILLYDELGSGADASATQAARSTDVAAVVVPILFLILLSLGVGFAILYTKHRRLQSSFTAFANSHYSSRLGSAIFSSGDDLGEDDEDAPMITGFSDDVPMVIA

Row | Substance | affinity for SorLA (SorLA) | binding to cultured cortical neurons (dark AP reaction product) ([1]; 10 nM AP-tagged ligand, 1 hr at 4° C.) | binding to Sort1-transfected COS-7 cells ([2]; 20 nM ligand) | Kd ([2]; read-out: binding affinity Kd for Sort1-transfected COS-7 cells) | AP-PGRN binding in sortilin -/- cortical neurons ([3]; 2 nM AP-PGRN, neurons from sortilin -/- vs +/- mice) | Kd ([3]; neurons, species not stated, data not shown, read-out: binding affinity Kd for neurons) | binding to empty-vector COS-7 cells [4] | affinity for SorCS1 (SorCS1) | displacement of AP-PGRN binding ([1]; 100 nM competitor against 10 nM AP-PGRN) | complex formation with Sort1 ectodomain [5]
1 | AP-PGRN: alkaline-phosphatase (AP) tagged human progranulin fusion protein produced in HEK293T cells | no affinity | specifically and discreetly bound | bound | 5 to 10 nM | 30 % of control values | 5 to 10 nM | did not bind | no affinity | – | –
2 | Flag-PGRN: FLAG-tagged PGRN produced by HEK293T cell transfection, purified by anti-FLAG affinity gel | – | – | – | – | – | – | – | – | displaced | formed a physical complex
